Data taken from patent US12303551B2, “Cellular immunotherapy compositions and uses thereof” (CERO THERPEUTICS HOLDINGS, INC., priority 2018, dated 2025).

Legend:
[1] = tested on: HCC827 NSCLC adenocarcinoma cells; assay: HCC827 viability (MTT) and phase contrast microscopy after co-culture with or without osimertinib; format: cell-based
Protocol: Assays were performed at an effector to target cell ratio of 5:1 in the presence or absence of an EGFR small molecular inhibitor (1 nM osimertinib). Co-culture of hCER104 modified CD3+ T cells was compared with co-culture of purified hCER104 modified CD4+ T cells. Cell viability was quantified using 3-(4,5-dimethylthiazol-2-yl)-2,5-diphenyltetrazolium bromide (MTT) assay.
Specific target cell killing of HCC827 observed in hCER104 modified T cells in the presence of osimertinib.
hCER104 modified CD3+ T cells and hCER104 modified CD4+ T cells were co-cultured with HCC827 NSCLC adenocarcinoma cells treated for 48 hours with or without 1 nM osimertinib at an effector to target cell ratio of 5:1. Mock transduced T cells were used as control.

[2] = tested on: HCC827 NSCLC adenocarcinoma cells; assay: FACS phagocytosis assay with pHrodo-red labeled HCC827 cells; format: cell-based; conditions: for % phagocytosis (pHrodo-positivity): overnight co-culture with HCC827
Excerpt: FIG. 67B is a bar graph of frequency of phagocytosis among CER-modified CD4+_T cells vs. CER-modified CD8+ T cells
CD4+ or CD3+ T cells were purified from PBMCs, activated, and transduced with lentiviral vector comprising hCER104 nucleic acid. hCER104 is a human CER104 construct comprising a Tim4 binding domain, a Tim4 transmembrane domain, TLR8 engulfment signaling domain, and Dap12 engulfment signaling domain and comprises an amino acid sequence of SEQ ID NO:176. HCC827 cells harbor an EGFR mutation and treatment with EGFR inhibitor osimertinib induces exposure of phosphatidylserine on the cell surface. Transduced T cells were expanded. CER-modified T cells were co-cultured with pHrodo-red labeled HCC827 NSCLC adenocarcinoma cells overnight and evaluated by FACs for pHrodo-positive signals to detect phagocytosis of HCC827 target cells (see, FIG. 67A, box inside FACs plot indicates % phagocytosis). T cell subsets were analyzed for their capacity to phagocytosis using antibody staining. Frequency of in vitro phagocytosis among CD4+ CER-modified T cells was much higher than CD8+ CER-modified T cells (see, FIG. 67B).

HCC827 NSCLC cells = assay: FACS phagocytosis assay of TAMRA-SE labeled HCC827 cells with or without bafilomycin; format: cell-based; conditions: CER-modified T cells, osimertinib treated HCC827, FACS
Excerpt: FIGS. 73A-73B show ablation of CER-induced phagocytosis by bafilomycin, an inhibitor of phagolysosome V-ATPase. CER104-modified CD4+ T cells and mock transduced CD4+ T cells (control) were co-cultured with HCC827 cells that were labeled with TAMRA-SE fluorescent dye and treated with osimertinib. Phagocytosis was quantified by FACs.
T cells were transduced with lentiviral vector comprising hCER104 nucleic acid as described in Example 6. hCER104 modified T cells were co-cultured with HCC827 adenocarcinoma cells with or without osimertinib. […] FACs plots from in vitro phagocytosis assays in hCER104 modified T cells or mock transduced control T cells are shown in FIG. 73B.

[3] = tested on: HPV+ SCC152/luceriferase+ cells; assay: SCC152/luciferase xenograft in NSG mice, bioluminescence imaging; format: in vivo; conditions: CER CD4+ T cells added 1:1 to HPV E7 CD8+ T cells
Protocol: HPV+ SCC152 engrafted NSG mice were treated with HPV E7 TCR modified CD8+ T cells+CD4+ T cells (mock transduced), HPV E7 TCR modified CD8+ T cells+hCER104 modified CD4+ T cells, or untreated. FIG. 74B is a graph of mean values of bioluminescence signal intensities obtained for treatment group.
HPV+ SCC152/luceriferase^+ cells were engrafted in NSG mice. Once tumors were established, mice were treated with HPV E7 specific TCR (SEQ ID NO:84) modified CD8+ T cells+mock transduced CD4+ T cells, HPV E7 specific TCR modified CD8+ T cells+hCER104 (SEQ ID NO:176) modified CD4+ T cells, or untreated (n=5 per treatment group). HPV E7 CD8+ T cells and hCER104 CD4+ T cells were administered at a 1:1 ratio. Tumor volume was measured over time by bioluminescence imaging (see, FIGS. 74A-74B).

[4] = tested on: E6/E7-specific human TCR/NFAT reporter cell line; assay: Antigen cross-presentation assay with E6/E7 TCR Jurkat NFAT luciferase reporter cells; format: cell-based; conditions: CD4+ and CD8+ CER T cells after phagocytosing HPV+ tumor cells; compared to mock transduced T cells
Protocol: In a phagocytic assay step, CD4+ and CD8+ T cell lines expressing CERs were co-cultured with the CD4+ and CD8+ T cells expressing HPV E7 specific TCR and SCC152 (HPV+) cells overnight. The following day CER+ T cells were subsequently FACS-sorted. FACS plot depicts CT violet^+ CERs. Following FACS purification, antigen presentation of HPV oncoproteins was evaluated. CER-expressing cells were co-cultured at a 1:2 ratio with E6 & E7-specific TCR/NFAT reporter cell lines, and NFAT activation measured over time using a plate reader.
CER-expressing CD4^+ and CD8^+ T cell lines, after phagocytosing HPV^+ tumor cells, are capable of cross-presentation of E7 HPV oncoproteins to E7 TCR/NFAT reporter-expressing T cells as measured by NFAT activation.
CD4+ and CD8+ CER-expressing T cell lines were established from human PBMCs. […]
For assessing MHC-I cross-presentation, SCC152 HPV^+ cells were co-cultured overnight with CER123-expressing CD4+ and CD8+ T cells or mock-transduced (vector only) T cells in the presence of T cells expressing an E7-specific TCR. […] NFAT activation was assessed at serial time points (0, 6, 12, 24, and 72 hrs) by measuring luciferase activity in cell culture supernatants. […] Induction of E711-19-specific Jurkat T cells were quantified by luminescence of NFAT signaling at indicated time points and compared to Mock (vector-alone) transduced T cells (FIG. 63).

| Molecule | killing of HCC827 cells, phase contrast microscopy ([1]; 48 hours co-culture, CD4+ and CD3+ T cells, in the presence of osimertinib) | HCC827 cell viability (MTT), CD4+ versus CD3+ CER-modified T cells ([1]; 48 hours, effector to target 5:1, with or without 1 nM osimertinib) | % phagocytosis (pHrodo-positivity) ([2]; CER-modified CD4+ T cells) | % phagocytosis (pHrodo-positivity) ([2]; CER-modified CD8+ T cells) | frequency of in vitro phagocytosis, CD4+ versus CD8+ CER-modified T cells ([2]; HCC827 target cells) | phagocytosis of fluorescent dye-labeled HCC827 cells (HCC827 NSCLC cells) | tumor killing (bioluminescence) [3] | cross-presentation of HPV E7 oncoproteins (NFAT luminescence) [4] |
| --- | --- | --- | --- | --- | --- | --- | --- | --- |
| hCER104: human CER104 construct: Tim4 binding domain, Tim4 transmembrane domain, TLR8 and Dap12 engulfment signaling domains; SEQ ID NO:176 (protein, hCER104) ETVVTEVLGHRVTLPCLYSSWSHNSNSMCWGKDQCPYSGCKEALIRTDGMRVTSRKSAKYRLQGTIPRGDVSLTILNPSESDSGVYCCRIEVPGWFNDVKINVRLNLQRASTTTHRTATTTTRRTTTTSPTTTRQMTTTPAALPTTVVTTPDLTTGTPLQMTTIAVFTTANTCLSLTPSTLPEEATGLLTPEPSKEGPILTAESETVLPSDSWSSVESTSADTVLLTSKESKVWDLPSTSHVSMWKTSDSVSSPQPGASDTAVPEQNKTTKTGQMDGIPMSMKNEMPISQLLMIIAPSLGFVLFALFVAFLHHLFYWDVWFIYNVCLAKVKGYRSLSTSQTFYDAYISYDTKDASVTDWVINELRYHLEESRDKNVLLCLEERDWDPGLAIIDNLMQSINQSKKTVFVLTKKYAKSWNFKTAFYLALQRLMDENMDVIIFILLEPVLQHSQYLRLRQRICKSSILQWPDNPKAEGLFWQTLRNVVLTENDSRYNNMYVDSIKQYYFLGRLVPRGRGAAEAATRKQRITETESPYQELQGQRSDVYSDLNTQRPYYK | specific cell killing | lower cell viability | 42.0% | 9.81% | much higher | exhibited phagocytosis | enhanced tumor killing in vivo | – |
| CER123: Chimeric engulfment receptor: Tim4 binding, Tim4 transmembrane, TLR2 and TRAF6 signaling; SEQ ID NO: 164 (protein, CER123, amino acids 1-22 are signal peptide) MSKGLLLLWLVTELWWLYLTPAASEDTIIGFLGQPVTLPCHYLSWSQSRNSMCWGKGSCPNSKCNAELLRTDGTRIISRKSTKYTLLGKVQFGEVSLTISNTNRGDSGVYCCRIEVPGWFNDVKKNVRLELRRATTTKKPTTTTRPTTTPYVTTTTPELLPTTVMTTSVLPTTTPPQTLATTAFSTAVTTCPSTTPGSFSQETTKGSAFTTESETLPASNHSQRSMMTISTDIAVLRPTGSNPGILPSTSQLTTQKTTLTTSESLQKTTKSHQINSRQTILIIACCVGFVLMVLLFLAFLHRFHGLWYMKMMWAWLQAKRKPRKAPSRNICYDAFVSYSERDAYWVENLMVQELENFNPPFKLCLHKRDFIPGKWIIDNIIDSIEKSHKTVFVLSENFVKSEWCKYELDFSHFRLFDENNDAAILILLEPIEKKAIPQRFCKLRKIMNTKTYLEWPMDEAQREGFWVNLRAAIKSMSLLNCENSCGSSQSESDCCVAMASSCSAVTKDDSVGGTASTGNLSSSFMEEIQGYDVEFDPPLESKYECPICLMALREAVQTPCGHRFCKACIIKSIRDAGHKCPVDNEILLENQLFPDNFAKREILSLMVKCPNEGCLHKMELRHLEDHQAHCEFALMDCPQCQRPFQKFHINIHILKDCPRRQVSCDNCAASMAFEDKEIHDQNCPLANVICEYCNTILIREQMPNHYDLDCPTAPIPCTFSTFGCHEKMQRNHLARHLQENTQSHMRMLA | – | – | – | – | – | – | – | enhanced cross-presentation efficiency |
